From patent US20240376221A1

Key:
[1] = molecular target: recombinant human OX40 (Acro Biosystems, cat. no. OXO-H5224) (human) (UniProt P43489); experiment: BLI cross-block; competitor (immobilized 1st Ab): IgG1-CD134-11D4
[2] = molecular target: recombinant human OX40 (Acro Biosystems, cat. no. OXO-H5224) (human) (UniProt P43489); experiment: BLI cross-block; competitor (immobilized 1st Ab): IgG1-CD134-INCAGN1949
[3] = molecular target: recombinant human OX40 (Acro Biosystems, cat. no. OXO-H5224) (human) (UniProt P43489); experiment: BLI cross-block; competitor (immobilized 1st Ab): IgG1-CD134-003
[4] = molecular target: recombinant human OX40 (Acro Biosystems, cat. no. OXO-H5224) (human) (UniProt P43489); experiment: BLI cross-block; competitor (immobilized 1st Ab): IgG1-CD134-49B4-RRE
[5] = molecular target: recombinant human OX40 (Acro Biosystems, cat. no. OXO-H5224) (human) (UniProt P43489); experiment: BLI cross-block; competitor (immobilized 1st Ab): IgG1-CD134-Hu106
[6] = molecular target: human OX40 with mouse CRD4 (human with mouse CRD4) (UniProt P43489); experiment: flow cytometry, ExpiCHO-S cells with human OX40 carrying mouse CRD4
[7] = molecular target: recombinant human OX40 (Acro Biosystems, cat. no. OXO-H5224) (human) (UniProt P43489); experiment: BLI cross-block; competitor (immobilized 1st Ab): IgG1-CD134-ABBV368
[8] = molecular target: recombinant human OX40 (Acro Biosystems, cat. no. OXO-H5224) (human) (UniProt P43489); experiment: BLI cross-block; competitor (immobilized 1st Ab): IgG1-CD134-SF2
[9] = molecular target: recombinant human OX40 (Acro Biosystems, cat. no. OXO-H5224) (human) (UniProt P43489); experiment: BLI cross-block; competitor (immobilized 1st Ab): IgG1-CD134-IBI101
[10] = molecular target: human OX40, cell surface-expressed (human) (UniProt P43489); experiment: flow cytometry, HEK293F cells with human OX40
[11] = molecular target: recombinant human OX40 (Acro Biosystems, cat. no. OXO-H5224) (human) (UniProt P43489); experiment: BLI cross-block; competitor (immobilized 1st Ab): IgG1-CD134-012
[12] = molecular target: recombinant human OX40 (Acro Biosystems, cat. no. OXO-H5224) (human) (UniProt P43489); experiment: BLI cross-block; competitor (immobilized 1st Ab): IgG1-CD134-h3C8
[13] = molecular target: human OX40 with mouse CRD1 (human with mouse CRD1) (UniProt P43489); experiment: flow cytometry, ExpiCHO-S cells with human OX40 carrying mouse CRD1
[14] = molecular target: recombinant human OX40 (Acro Biosystems, cat. no. OXO-H5224) (human) (UniProt P43489); experiment: BLI cross-block; competitor (immobilized 1st Ab): IgG1-CD134-003-HC6LC2-RR
[15] = molecular target: recombinant human OX40 (Acro Biosystems, cat. no. OXO-H5224) (human) (UniProt P43489); experiment: BLI cross-block; competitor (immobilized 1st Ab): IgG1-CD134-MEDI0562
[16] = molecular target: recombinant human OX40 (Acro Biosystems, cat. no. OXO-H5224) (human) (UniProt P43489); experiment: BLI cross-block; competitor (immobilized 1st Ab): IgG1-CD134-RG7888
[17] = molecular target: recombinant human OX40 (Acro Biosystems, cat. no. OXO-H5224) (human) (UniProt P43489); experiment: BLI, Ab on AHC sensor, OX40 analyte
[18] = molecular target: recombinant human OX40 (Acro Biosystems, cat. no. OXO-H5224) (human) (UniProt P43489); experiment: BLI cross-block; competitor (immobilized 1st Ab): IgG1-CD134-GBR830
[19] = molecular target: recombinant human OX40 (Acro Biosystems, cat. no. OXO-H5224) (human) (UniProt P43489); experiment: BLI cross-block; competitor (immobilized 1st Ab): IgG1-CD134-A4453
[20] = molecular target: recombinant human OX40 (Acro Biosystems, cat. no. OXO-H5224) (human) (UniProt P43489); experiment: BLI cross-block; competitor (immobilized 1st Ab): IgG1-CD134-007
[21] = molecular target: human OX40, cell surface-expressed (human) (UniProt P43489); experiment: flow cytometry, ExpiCHO-S cells with human OX40
[22] = molecular target: human OX40 with mouse CRD3 (human with mouse CRD3) (UniProt P43489); experiment: flow cytometry, ExpiCHO-S cells with human OX40 carrying mouse CRD3
[23] = molecular target: cynomolgus monkey OX40, cell surface-expressed (cynomolgus monkey); experiment: flow cytometry, HEK293F cells with cynomolgus monkey OX40
[24] = molecular target: recombinant cynomolgus monkey OX40 (Acro Biosystems, cat. no. OXO-C5220) (cynomolgus monkey); experiment: BLI, Ab on AHC sensor, OX40 analyte
[25] = molecular target: human OX40 with mouse CRD2 (human with mouse CRD2) (UniProt P43489); experiment: flow cytometry, ExpiCHO-S cells with human OX40 carrying mouse CRD2
Chain of human OX40 with mouse CRD2 (human with mouse CRD2) (P43489 other isoform, or with tags, fused parts or gaps limits assumed): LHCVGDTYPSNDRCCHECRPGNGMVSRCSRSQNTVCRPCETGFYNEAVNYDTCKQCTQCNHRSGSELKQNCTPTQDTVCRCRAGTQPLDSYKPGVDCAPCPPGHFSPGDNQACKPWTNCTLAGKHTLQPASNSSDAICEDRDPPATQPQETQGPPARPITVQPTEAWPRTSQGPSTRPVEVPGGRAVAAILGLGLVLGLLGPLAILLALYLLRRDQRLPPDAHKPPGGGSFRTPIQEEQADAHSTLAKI

Chain of recombinant cynomolgus monkey OX40 (Acro Biosystems, cat. no. OXO-C5220) (cynomolgus monkey) (P43489 other isoform, or with tags, fused parts or gaps limits assumed): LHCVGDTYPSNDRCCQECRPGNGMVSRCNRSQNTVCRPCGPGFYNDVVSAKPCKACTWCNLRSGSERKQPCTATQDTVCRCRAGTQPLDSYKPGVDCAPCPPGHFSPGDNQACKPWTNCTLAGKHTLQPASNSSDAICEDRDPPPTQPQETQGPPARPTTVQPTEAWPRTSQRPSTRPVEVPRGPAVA
Chain of recombinant human OX40 (Acro Biosystems, cat. no. OXO-H5224) (human) (P43489 29-216 limits assumed): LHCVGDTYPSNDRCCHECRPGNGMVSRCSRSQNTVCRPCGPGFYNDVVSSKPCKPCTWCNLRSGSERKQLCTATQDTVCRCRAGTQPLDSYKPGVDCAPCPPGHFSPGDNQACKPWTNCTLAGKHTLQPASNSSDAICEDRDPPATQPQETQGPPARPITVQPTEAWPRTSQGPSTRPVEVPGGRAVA
Chain of human OX40, cell surface-expressed (human) (P43489 29-277): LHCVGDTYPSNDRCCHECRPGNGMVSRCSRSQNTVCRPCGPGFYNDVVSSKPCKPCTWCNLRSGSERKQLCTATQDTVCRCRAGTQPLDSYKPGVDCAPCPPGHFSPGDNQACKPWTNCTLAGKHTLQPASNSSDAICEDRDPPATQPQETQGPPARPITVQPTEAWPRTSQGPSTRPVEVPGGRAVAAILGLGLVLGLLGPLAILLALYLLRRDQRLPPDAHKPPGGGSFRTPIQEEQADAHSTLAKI
Chain of human OX40 with mouse CRD1 (human with mouse CRD1) (P43489 other isoform, or with tags, fused parts or gaps limits assumed): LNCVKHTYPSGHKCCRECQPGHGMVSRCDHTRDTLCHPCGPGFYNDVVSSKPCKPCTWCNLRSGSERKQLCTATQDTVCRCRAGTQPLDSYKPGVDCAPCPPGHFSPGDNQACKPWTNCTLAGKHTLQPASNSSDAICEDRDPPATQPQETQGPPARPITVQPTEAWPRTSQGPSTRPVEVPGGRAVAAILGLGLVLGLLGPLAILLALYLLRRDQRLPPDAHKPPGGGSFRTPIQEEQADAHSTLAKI
Chain of human OX40 with mouse CRD4 (human with mouse CRD4) (P43489 other isoform, or with tags, fused parts or gaps limits assumed): as the sequence (P43489 29-277) above, with D109N, A122S, H125Q, L127R, Q128H, N132D, S134L, I137V counted along it
Chain of cynomolgus monkey OX40, cell surface-expressed (cynomolgus monkey) (P43489 other isoform, or with tags, fused parts or gaps limits assumed): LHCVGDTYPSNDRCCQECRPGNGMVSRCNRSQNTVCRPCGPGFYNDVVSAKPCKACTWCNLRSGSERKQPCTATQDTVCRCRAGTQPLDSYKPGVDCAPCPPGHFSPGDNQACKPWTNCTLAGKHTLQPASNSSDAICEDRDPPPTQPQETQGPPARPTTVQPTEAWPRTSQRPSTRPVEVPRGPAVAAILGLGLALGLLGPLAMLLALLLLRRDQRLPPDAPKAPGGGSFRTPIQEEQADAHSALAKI
Chain of human OX40 with mouse CRD3 (human with mouse CRD3) (P43489 other isoform, or with tags, fused parts or gaps limits assumed): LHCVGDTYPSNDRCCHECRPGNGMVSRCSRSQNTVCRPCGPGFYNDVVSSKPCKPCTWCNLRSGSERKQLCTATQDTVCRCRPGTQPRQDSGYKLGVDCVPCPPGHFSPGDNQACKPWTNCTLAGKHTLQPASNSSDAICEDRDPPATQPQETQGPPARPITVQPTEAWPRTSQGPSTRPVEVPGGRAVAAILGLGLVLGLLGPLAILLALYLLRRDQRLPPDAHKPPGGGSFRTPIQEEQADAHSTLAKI

Binder	corrected association response [1] [nm]	corrected association response [2] [nm]	corrected association response [3] [nm]	corrected association response [4] [nm]	corrected association response [5] [nm]	EC50 (read off the curve) [6] [µg/mL]	corrected association response [7] [nm]	corrected association response [8] [nm]	corrected association response [9] [nm]	EC50 (read off the curve) [10] [µg/mL]	corrected association response [11] [nm]	corrected association response [12] [nm]	EC50 (read off the curve) [13] [µg/mL]	corrected association response [14] [nm]	corrected association response [15] [nm]	corrected association response [16] [nm]	Kd [17] [nM]	koff [17] [s⁻¹]	kon [17] [M⁻¹ s⁻¹]	corrected association response [18] [nm]	also measured
IgG1-CD134-GBR830 (antibody, INN chains, looked up, V domains shown, IgG1) VH: QVTLKESGPALVKPTQTLTLTCSFSGFSLSTSGMGVGWIRQPPGKALEWIAHIWWDDDKYYNTALKTRLTISKDTSKNQVVLTMTNMDPVDTATYYCARIDWDGFAYWGQGTLVTVSS VL: EIVLTQSPATLSLSPGERATLSCRASSSVSYMHWYQQKPGQAPRPWIYATSNRATGIPARFSGSGSGTDYTLTISSLEPEDFAVYYCQQWSSNPWTFGQGTKVEIK	0.13	0.01	0.97	0	0.02	0.06	-0.01	0.19	0.02	0.06	0.84	-0.02	0.06	1.08	0.33	0.61	67	0.0077	120000	0.01	corrected association response [19]: 0.28 nm; corrected association response [20]: 0.07 nm; EC50 (read off the curve) [21]: 0.05 µg/mL; EC50 (read off the curve) [22]: 0.06 µg/mL
IgG1-CD134-ABBV368 (antibody, INN chains, looked up, V domains shown, IgG1) VH: EVQLVESGGGLVQPGGSLRLSCAASGFTFSRYGMSWVRQAPGKGLELVATINSNGGRTYYPDSVKGRFTISRDNAKNSLYLQMNSLRAEDTAVYYCAREGITTAYAMDYWGQGTTVTVSS VL: DIVMTQSPDSLAVSLGERATINCKASQSVDYDGDSYMHWYQQKPGQPPKLLIYAASILESGVPDRFSGSGSGTDFTLTISSLQAEDVAVYYCQQSNEDPRTFGGGTKVEIK	0.13	0.01	1.27	0	0	0.005	-0.04	0.04	0.01	0.05	0.87	-0.03	0.005	1.68	-0.01	0.02	32	0.017	510000	0.01	EC50 (read off the curve) [23]: 0.05 µg/mL; Kd [24]: 82 nM; koff [24]: 0.019 s⁻¹; kon [24]: 230000 M⁻¹ s⁻¹; corrected association response [19]: 0.29 nm; corrected association response [20]: 0 nm; EC50 (read off the curve) [21]: 0.005 µg/mL
IgG1-CD134-MEDI0562 (antibody, INN chains, looked up, V domains shown, IgG1) VH: QVQLQESGPGLVKPSQTLSLTCAVYGGSFSSGYWNWIRKHPGKGLEYIGYISYNGITYHNPSLKSRITINRDTSKNQYSLQLNSVTPEDTAVYYCARYKYDYDGGHAMDYWGQGTLVTVSS VL: DIQMTQSPSSLSASVGDRVTITCRASQDISNYLNWYQQKPGKAPKLLIYYTSKLHSGVPSRFSGSGSGTDYTLTISSLQPEDFATYYCQQGSALPWTFGQGTKVEIK	0.14	0	1.39	0.15	0.69	0.06	-0.02	0.01	0.28	0.06	0.82	0.54	0.07	1.73	0	0	15	0.0022	150000	0.32	EC50 (read off the curve) [23]: 0.1 µg/mL; EC50 (read off the curve) [25]: 0.06 µg/mL; Kd [24]: 17 nM; koff [24]: 0.0018 s⁻¹; kon [24]: 110000 M⁻¹ s⁻¹; corrected association response [19]: 0.41 nm; corrected association response [20]: 1.14 nm; EC50 (read off the curve) [21]: 0.07 µg/mL
